# According to the DeepSol protein solubility set:
# Experiment: soluble on expression in E. coli; label from the status in PepcDB or PDB records
row,Sequence,soluble on expression in E. coli
1,HHHHHHMAKKVNWYVSCSPRSPEKIQPELKVLANFEGSYWKGVKGYKAQEAFAKELAALPQFLGTTYKKEAAFSTRDRVAPMKTYGFVFVDEEGYLRITEAGKMLANNRRPKDVFLKQLVKWQYPSFQHKGKEYPEEEWSINPLVFVLSLLKKVGGLSKLDIAMFCLTATNNNQVDEIAEEIMQFRNEREKIKGQNKKLEFTENYFFKRFEKIYGNVGKIREGKSDSSHKSKIETKMRNARDVADATTRYFRYTGLFVARGNQLVLNPEKSDLIDEIISSSKVVKNYTRVEEFHEYYGNPSLPQFSFETKEQLLDLAHRIRDENTRLAEQLVEHFPNVKVEIQVLEDIYNSLNKKVDVETLKDVIYHAKELQLELKKKKLQADFNDPRQLEEVIDLLEVYHEKKNVIEEKIKARFIANKNTVFEWLTWNGFIILGNALEYKNNFVIDEELQPVTHAAGNQPDMEIIYEDFIVLGEVTTSKGATQFKMESEPVTRHYLNKKKELEKQGVEKELYCLFIAPEINKNTFEEFMKYNIVQNTRIIPLSLKQFNMLLMVQKKLIEKGRRLSSYDIKNLMVSLYRTTIECERKYTQIKAGLEETLNNWVVDKEVRF,soluble
2,MSSGSRPSSGGGGGGGGASGGAGGGAPGGGGGGIRGFFSKLRKPSDQPNGNQVQVGTRTFEAHELQKLIPQLEEAISRKDAQLRQQQTIVEGHIKRISELEGEVTTLQRECDKLRSVLEQKAQSAASPGGQPPSPSPRTDQLGNDLQQKAVLPADGVQRAKKIAVSAEPTNFENKPATLQHYNKTVGAKQMIRDAVQKNDFLKQLAKEQIIELVNCMYEMRARAGQWVIQEGEPGDRLFVVAEGELQVSREGALLGKMRAGTVMGELAILYNCTRTASVQALTDVQLWVLDRSVFQMITQRLGMERHSQLMNFLTKVSIFQNLSEDRISKMADVMDQDYYDGGHYIIRQGEKGDAFFVINSGQVKVTQQIEGETEPREIRVLNQGDFFGERALLGEEVRTANIIAQAPGVEVLTLDRESFGKLIGDLESLKKDYGDKERLAQVVREPPSPVKIVDDFREEFAQVTLKNVKRLATLGVGGFGRVELVCVNGDKAKTFALKALKKKHIVDTRQQEHIFAERNIMMETSTDWIVKLYKTFRDQKFVYMLLEVCLGGELWTTLRDRGHFDDYTARFYVACVLEGLEYLHRKNIVYRDLKPENCLLANTGYLKLVDFGFAKKLASGRKTWTFCGTPEYVSPEIILNKGHDQAADYWALGIYICELMLGRPPFQASDPMKTYTLILKGVDALEIPNRRIGKTATALVKKLCRDNPGERLGSGSGGVNDIRKHRWFMGFDWEGLRSRTLKPPILPKVSNPADVTNFDNYPPDNDVPPDEFSGWDEGF,not soluble
3,MAHHHHHHMDQLVYYVMVQHNSIQPIIVRQPPTVVIHTQPNPPITLDLPPQNIILKNDEPQPIIVRQQNPNIIVQKSGNEFSENPNYALSLNQQMKEITSMTSPSAAIPHGGIAQVGIPHVTNEPLLGVTTPEMNELTDPAYIYSNQYITTQNKSQPMNNMYFTSVPLNNDGSYSPYNMTLYANKREDYTKSTPSKY,not soluble
4,MKLLTLNCHSWQEENQIEKIQYLAKVIQEEEYDVIALQEVSQSIQAENVCGNKKKDNFGLLLLEELKALHVKDYNITWDFSHIGYDVYEEGLAIITKHNIIKEDTFFISENEDTTYWKTRKIVSTTIAYNGKDITFYSCHLGWWNDEEESFKGQVDRLMERVDSNKLAFLMGDFNNNARLKGEGYEYMMQKGLYDTYELAIEKDEGTTVQGEIAGWDENKHNLRIDLILCNQSKKVHSSKVIFNGTNRNVISDHFGVEVQLDI,not soluble
5,MVRPYGIKVNKRKEREERYDKEEDEVEEQPKFEQKQKARESSKKAKKESTSRAEEDNDEEEVTVEATAAAEDIVGGIPIVLNAPNKEKSGIVFVLEKASLEVAKVGKTYQLLNSDDHANFLKKNNRNPADYRPDITHQALLMILDSPVNKAGRLKAVYVRTEKGVLFEVKPHVRIPRTFKRFAGIMLQLLQKLSITAVNSREKLLRCVKNPIEEHHLPVNSHRIGFSHSSEKLVNMQKHLATVCDDDRDTVFVVGAMAHGKIDCNYIDEFVSVSEYPLSAAYCISRICEALATNWNII,soluble
6,MSNNKQAWTGQLDLSVFNNGKKSVARDVFFEKALKVMRPVYLNQSDIPTFYIVNVGGGYLDGDRYTMNFNIDSDAKVILTSQGATKIYKTLNDHVEQYQTFNIKNNGYAEYVGDPIIAFENAKFYQHNVFNLESTASLFYTDILTPGYSKSDKRFSYTYMHLLNEIYVDDALVTFDNMLLDPQKQNVDGLGYMEDYTHLGSCYFIHPSVNQKFIEQVYEEIKHFQHKYDCRFGITHLPTHGFSLRILSNKTQVIESIITAVQCYVVKQIFDRDVDFLRKYLEHHHHHH,not soluble
7,MSHTAEIPMVPGSESPLELKPLKAVDPKAVYHRRAQRLLSLAKDSPLADYFELCRRVVAIQARLAAEADFGQLLAWGKDEAIPLSHLGSEADSYWQGLLQQLLSDLLPQVGEDLARVLRLLMQQSPEQLTSWGASLRQGHMSAVPARFSLFIWAAMGVYWSHWAPMVIKRIDQRKVAQQNLCPICGSHPVASVIVDQPRAGLRYLHCSLCESEWHYIRAHCTSCGQDKGTTLWSFDDTQAQVRIESCDECHGYTKMMFVEKSPLMDVVADDLATLMLDSELNAKGFGATTVNPLLLAHETEQ,not soluble
8,VKKNGLGEIKSIYIDDNVSGSGFERRGIYELKRDVMEGKINLLVLKDLSRLGRNNAKTLLFLDFLEENGVRVVTFDGRYDSLKDNDIVGIETWFNERYILDISRKIRANLRFKIQKGEYIGHAPFGYEKSPYEKNRLIVNEEEAGIVRRIYSLYKEGYGYSYIAGILNSEGVKSPSNGRWNPTAIRRILLNRVYTGDTVQGVSEKISFKSKKTRRLPKERWVITENTHEPIVSKEEYEEIQRIRNNKNARPVPHKGIIHVFRGSIFCGGCGSVMFARKRHNRPMSYICSSYAKEGRTACTSHSIREKDLCEVVLDDVAKLLDDENMVNKILQKIDLAGAAEDYQTLREKLLKQMEAKQKQQEILYQDRLENKISESLFLRMNNRLENRISEIKREIAQLDLRKSEFVTSEEKIAKLKNYITNNGITNEIVKIVINRIIVFDKGDNYLEEKWNLNLSQKEKRYIELYGAVLIEYGF,soluble
9,MELKFVVPDMAETFGKLGYAGEGEILTEGYGRNTVVIGRSYHLYSSKQRADDIEVVVAAEAGEKDFDQDQPLKAVNPHLVAKGYAIENRGFTDYVLYVDDLVKA,not soluble
10,MPEPTKKEEPSKEKEAGTTPAKDWTLVETPPGEEQAKQNANSQLSILFIEKPQGGTVKVGEDITFIAKVKAEDLLRKPTIKWFKGKWMDLASKAGKHLQLKETFERHSRVYTFEMQIIKAKDNFAGNYRCEVTYKDKFDSCSFDLEVHESTGTTPNIDIRSAFKRSGEGQEDAGELDFSGLLKRREVKQQEEEPQVDVWELLKNAKPSEYEKIAFQYGITDLRGMLKRLKRMRREEKKSAAFAKILDPAYQVDKGGRVRFVVELADPKLEVKWYKNGQEIRPSTKYIFEHKGCQRILFINNCQMTDDSEYYVTAGDEKCSTELFVREPPIMVTKQLEDTTAYCGERVELECEVSEDDANVKWFKNGEEIIPGPKSRYRIRVEGKKHILIIEGATKADAAEYSVMTTGGQSSAKLSVDLKPLKILTPLTDQTVNLGKEICLKCEISENIPGKWTKNGLPVQESDRLKVVQKGRIHKLVIANALTEDEGDYVFAPDAYNVTLPAKVHVIDPPKIILDGLDADNTVTVIAGNKLRLEIPISGEPPPKAMWSRGDKAIMEGSGRIRTESYPDSSTLVIDIAERDDSGVYHINLKNEAGEAHASIKVKVVDFPDPPVAPTVTEVGDDWCIMNWEPPAYDGGSPILGYFIERKKKQSSRWMRLNFDLCKETTFEPKKMIEGVAYEVRIFAVNAIGISKPSMPSRPFVPLAVTSPPTLLTVDSVTDTTVTMRWRPPDHIGAAGLDGYVLEYCFEGTEDWIVANKDLIDKTKFTITGLPTDAKIFVRVKAVNAAGASEPKYYSQPILVKEIIEPPKIRIPRHLKQTYIRRVGEAVNLVIPFQGKPRPELTWKKDGAEIDKNQINIRNSETDTIIFIRKAERSHSGKYDLQVKVDKFVETASIDIQIIDRPGPPQIVKIEDVWGENVALTWTPPKDDGNAAITGYTIQKADKKSMEWFTVIEHYHRTSATITELVIGNEYYFRVFSENMCGLSEDATMTKESAVIARDGKIYKNPVYEDFDFSEAPMFTQPLVNTYAIAGYNATLNCSVRGNPKPKITWMKNKVAIVDDPRYRMFSNQGVCTLEIRKPSPYDGGTYCCKAVNDLGTVEIECKLEVKV,soluble
11,RENRNGDLYSLIYGTVSSEAIDPVEKKPLYHFFPGSYVYSVGTIGCNFRCKHCQNWSISQVCLEDAYTKDILPEELVERALLSDSKSIAWTYNEPTIWHEYTYESAKLAKEAGLGTIYVTNGYMTPESLKHIAPYLDAANIDIKAFNEKFYHDIASAKLAPVLEASALAKELGIHVEITTLIIPGVNDSLDELRELSKWVYKNLGPDTPLHFTRFHPQYKMQDLSPTPVKTMENACKIATEEGMKYVYMGNV,not soluble
12,MPNPRRIVFGDVHGHFDALTALFEAIAPNERDGVYFVGDLIDRGPESAKVVDFVMENKYHCLLGNHEQMMLDAVGGFNFSPQLLHAWIYSGGKSTLESYEHQIPQSHVDWMRNLPLYLDLGDVWLVHAGVDPRLPIEEQGEAQFCWIRDEFHRYPYPYFANKLIITGHTITFTFANVEPGKLVSGPGWLDIDTGAYHPKSGWLTALELNNQEVYQAHIFTNEVRRLPLEDAVVPLEHHHHHH,soluble
13,MGHHHHHHSHPPEKHLGIYSVLPNHKADAVLSMPSSVTSGLHVQPALAVSMDFSTYGGLLPQGFIQRELFSKLGELAVGMKSESRTIGEQCSVCGVELPDNEAVEQHRKLHSGMKTYGCELCGKRFLDSLRLRMHLLAHSAGAKAFVCDQCGAQFSKEDALETHRQTHTGTD,soluble
14,MTTIASFPILQLPEKSLKIAIQSLTLEELIKFSLISKSTKRAAESLNLQADPFCDLY,not soluble
15,MGSDKIHHHHHHMPQDVMTANHVSPSNDAAAPSALDLARNQRLSLMDLLSVSEALNAAGQQAAAAELYKTWVAFNDNNPTIHLAYFNYAVMLNQLGDRAGAVQAFRACLKANPEFAPGHINLGRALEDAGLIGHAVEQWSHYAEVTKNVDAETIGHRHMTLQNMGRVLEGAGKLEEAETALLQAFELRPELPEAGQHWASLRQRQCKWPVLAPSNHISPRKMLDAMSSLTLSCYADDPMFQLAKAYRLSKTLIGARPDLSRFPRRSPKQKSGTGQRLRVGYLSSDLRDHAVGFALCEVLELHDKDSLEVFAYYCGNVRGTDSTQERIKAAVHCWRDIHGVDDATAASQIIADEIDILIDVNGYTKDARAKIFAYRPAPVIVSFCGYPGSMGSPFHQYLISDGYMIPPENEIYYSEKVLRIACDQPLDRKRPVAARPSRADVGLPEDAFVYASFNGMQKITENCFARWMTILSETPGSLLWLLTGDDDVNQRLRDLAEKSGVASERLVFAPKAQNPQHIARIGLADLFLDTFPYGAHSTASDAITSGLPVLTMYGKTFAARFCGSIVTAAGVPEMICSSPEDYVARAIGFERDRQSLLEVRESIARQRETSVLRDIPALARRLEELFWQMQGECERGETPVPDLSNLDIYYEAGAEALLENIEFEDEQSYRERYLKKLRQWHDYAPIPYDRRLWQNPDN,not soluble
16,MPLVTRNIEPRHLCRQTLPSVRSELECVTNITLANVIRQLGSLSKYAEDIFGELFTQANTFASRVSSLAERVDRLQVKVTQLDPKEEEVSLQGINTRKAFRSSTIQDQKLFDRNSLPVPVLETYNTCDTPPPLNNLTPYRDDGKEALKFYTDPSYFFDLWKEKMLQDTKDIMKEKRKHRKEKKDNPNRGNVNPRKIKTRKEEWEKMKMGQEFVESKEKLGTSGYPPTLVYQNGSIGCVENVDASSYPPPPQSDSASSPSPSFSEDNLPPPPAEFSYPVDNQRGSGLAGPKRSSVVSPSHPPPAPPLGSPPGPKPGFAPPPAPPPPPPPMIGIPPPPPPVGFGSPGTPPPPSPPSFPPHPDFAAPPPPPPPPAADYPTLPPPPLSQPTGGAPPPPPPPPPPGPPPPPFTGADGQPAIPPPLSDTTKPKSSLPAVSDARSDLLSAIRQGFQLRRVEEQREQEKRDVVGNDVATILSRRIAVEYSDSEDDSSEFDEDDWSD,soluble
